Read-outs that look alike come from different tables or passages of the source.
Columns and labels:
[1] = molecular target: SETD3(1−498) (UniProt Q86TU7); assay: BLI
[2] = molecular target: SETD3(1−498) (UniProt Q86TU7); assay: AUC

Row | Substance | Kd ([1]; 2A KHY(70-72)AAA at 12.5, 6.25, 3.13, 1.56 and 0.78 µM) [nM] | Kd [1] [nM] | stoichiometry N [2]
1 | EV71 2A C110A K70A; H71A; Y72A | 1750 | – | –
2 | EV71 2A C110A (enzyme) | – | 22.7 | 1
3 | CVB3 2A C107A (enzyme) | – | 11.8 | –

Source: paper PMC11099015
